7 molecules from patent US20250213704A1, “METHOD OF TREATING A CANCER WITH A MULTIVALENT PEPTIDE CONJUGATE” (Valitor, Inc, priority 2022, published 2025) can be followed below.

What is called Kd is the equilibrium constant for the complex coming apart.

The target of series [1] is T1, Human VEGF 165 (human, UniProt P15692-4 27-191, Avi tag (as printed under Tags); the tag's sequence and place are not given).
T1 construct: Bought reagent loaded on the BLI probes as ligand; VEGF165 is one isoform of it; also called BLI ligand, Avi tag, R&D Systems AVI-293-050
The series is described as follows: BLI (Gator), Avi-tagged human VEGF 165 on the probe, conjugate as analyte, 1:1 global fit; 90.5 kDa CMC, valency 9, 48.41 percent unconjugated peptide. On the procedure:
(§1) Either one or two probes per sample (one for kinetic assay and one for ligand free control if used) were equilibrated in 250 μL BLI buffer (PBS pH 7.4, 0.2% Tween and 0.2% BSA filtered at 0.2 μm) for at minimum 10 min in a Gator Bio Max plate. Ligands were diluted to a fixed concentration of 25-100 nM based on performance in pilot reactions in BLI buffer. Analytes were prepared at the top concentration determined in pilot reactions in BLI buffer and serially diluted 1:3 two to five more times using BLI buffer (Table 3). Black flat-bottom non-coated 96 well plates (Greiner Bio One Cat #655209 or similar) were loaded column-wise with 200 μL of ligand, analyte dilutions and one column of BLI buffer for each column of ligand and analyte. One well in each column of analyte was BLI buffer to be used as a blank for reference subtraction. The sample plate was placed in the Gator on a tilted platform set to 25° C. […] Next, the kinetic reads were started using the step parameters. If a ligand-free control was conducted, when kinetic reads were complete with ligand-loaded probes, the ligand free control was run using new probes that were not loaded with the ligand. The same kinetic assay timing and same sample wells were used that were analyzed with ligand loaded probes.
(§2) When kinetic assay was complete, data was analyzed using the Gator software. […]

The target of series [2] is T1, Human VEGF 165. The series is described as follows: BLI (Gator), Avi-tagged human VEGF 165 on the probe, conjugate as analyte, 1:1 global fit; 250 kDa CMC, valency 21, 44.37 percent unconjugated peptide. On the procedure:
as §1, §2

The test system of series [3] is SK-MEL-28 melanoma tumors. Kind of series: Intratumoral pharmacokinetics, in vivo imaging of Sulfo-Cy7 tagged protein after IT injection, tumor type 1. Details: species or system athymic nude mice. The method, then: FIG. 2A-2C show results of intra-tumoral administration in xenografts in mice. […] The intra-tumoral half-lives were calculated using exponential decay fits of region of interest (ROI) radiant efficiency of infrared-tagged treatment peptides over 168 hours. […] The intra-tumoral half-lives were calculated using exponential decay fits of ROI radiant efficiency of infrared-tagged treatment peptides over 264 hours.
Mouse tumor models for evaluating the clearance rate of proteins from solid tumors were used to measure the intratumoral (IT) half-life of MVPs to maximize the parameters for tumor retention. Antibodies tagged using the amine-reactive Sulfo-Cy7 NHS ester (Broadpharm Cat #BP-22541) near-infrared fluorophore by the following method were used. This method was conducted under aseptic conditions. First, the dye was dissolved DMSO at 10 mg/mL concentration. Then, the protein at 5.0-10.0 mg/mL concentration was mixed with 0.1 M sodium bicarbonate at a 3:2 vol:vol ratio. Lastly, the fluorophore was added at a 1:2 protein:fluorophore molar ratio, mixed well, and incubated at room temperature for one hour on a neutator protected from the light by covering with foil. The NHS esters were quenched by adding 1.5 M Tris buffer pH 8.5 at 10% of the reaction volume and mixed on a neutator for another 10 minutes. The tagged protein was purified away from the unreacted fluorophore using a NAP-10 desalting column (illustra Cat #17-0854-01) that was equilibrated with PBS pH 7.0+0.01% Tween-20 according to the manufacturer's directions. The protein concentration and degree of Cy7 labeling was determined by the absorbance at 280 and 750 nm. […]
Tumors were established by injecting 3×10^6 SK-MEL-28 cells mixed 1:1 with Matrigel (Corning Cat #354234) in a 0.1 mL volume subcutaneously into the right flank of 8 week old athymic nude mice (Table 6). The tumor size was monitored until it reached a size of […]. […] When the study concluded, the half-life of each treatment was determined following injection using exponential decay calculations for optical in vivo imaging (Table 7).

For series [4], the system named is MDA-MB-231 breast cancer tumors. The arrangement: species or system nude mice. Conditions: mouse, in vivo.

T1 sequence (P15692 other isoform, or with tags, fused parts or gaps limits assumed): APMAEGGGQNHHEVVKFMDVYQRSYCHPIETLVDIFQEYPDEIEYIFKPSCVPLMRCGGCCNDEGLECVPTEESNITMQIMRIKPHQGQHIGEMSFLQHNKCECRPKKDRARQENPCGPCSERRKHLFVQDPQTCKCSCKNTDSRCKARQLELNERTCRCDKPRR

B1: Conjugate 114: Anti-VEGF VHH (SEQ ID NO: 8) conjugated to 90.5 kDa CMC, valency 9 (other)
VHH: MQVQLVESGGGLVQPGGSLRLSCAASGFAYSTYSMGWFRQAPGKEREAVATINSGTFRLWYTDSVKGRFTISRDNSKNTLYLQMNSLRPEDTAVYYCAARAWSPYSSTVDAGDFRYWGQGTLVTVSSAEAAAKEAAAKEAAAKAGC
modifications: C-terminal Cys thiol linked through a hydrazide-PEG2-maleimide linker to 90.5 kDa carboxymethyl cellulose
notes: Multivalent peptide-polymer conjugate; valency 9 is the mean molar ratio of peptide to polymer; also called anti-VEGF MVP
Take B1: in the series with Human VEGF 165 [1], the Kd was found to be 0.966 nM.

B2: Conjugate 115: Anti-VEGF VHH (SEQ ID NO: 8) conjugated to 250 kDa CMC, valency 21 (other)
VHH: MQVQLVESGGGLVQPGGSLRLSCAASGFAYSTYSMGWFRQAPGKEREAVATINSGTFRLWYTDSVKGRFTISRDNSKNTLYLQMNSLRPEDTAVYYCAARAWSPYSSTVDAGDFRYWGQGTLVTVSSAEAAAKEAAAKEAAAKAGC
modifications: C-terminal Cys thiol linked through a hydrazide-PEG2-maleimide linker to 250 kDa carboxymethyl cellulose
notes: Multivalent peptide-polymer conjugate; valency 21 is the mean molar ratio of peptide to polymer; also called anti-VEGF MVP
As to B2, the Kd in the series with Human VEGF 165 [2] stood at 0.583 nM.

B3: Conjugate 110: Anti-VEGF DARPin (SEQ ID NO: 1) conjugated to 700 kDa CMC, MP2H linker, valency 20 (conjugate)
chain: SNAGSDLDKKLLEAARAGQDDEVRILMANGADVNARDSTGWTPLHLAAPWGHPEIVEVLLKNGADVNAADFQGWTPLHLAAAVGHLEIVEVLLKYGADVNAQDKFGKTAFDISIDNGNEDLAEILQKAAGGGSGGGSC
modifications: conjugated to 700 kDa CMC via MP2H linker; aVEGF_Gly_Cys DARPin
Consider B3, for which, in series [3] (mouse, in vivo), the “IT half-life compared with unconjugated anti-VEGF DARPin and other conjugate (in words)” value is reported as “longer than that of the unconjugated anti-VEGF DARPin or the peptide conjugated to a 90 kDa CMC”; the “Intratumoral t1/2” value is 48.7 ± 24.7 h.

B4: Unconjugated: Unconjugated Sulfo-Cy7 tagged anti-VEGF DARPin (SEQ ID NO: 1), comparator for the conjugates (protein)
chain: SNAGSDLDKKLLEAARAGQDDEVRILMANGADVNARDSTGWTPLHLAAPWGHPEIVEVLLKNGADVNAADFQGWTPLHLAAAVGHLEIVEVLLKYGADVNAQDKFGKTAFDISIDNGNEDLAEILQKAAGGGSGGGSC
modifications: Sulfo-Cy7 label; aVEGF_Gly_Cys DARPin
For the molecule B4, the “Intratumoral t1/2” value in series [4] is 15.1 ± 9.8 h.

B5: Conjugate 111: Anti-VEGF DARPin (SEQ ID NO: 1) conjugated to 90 kDa CMC, EMCH linker, valency 34 (conjugate)
chain: SNAGSDLDKKLLEAARAGQDDEVRILMANGADVNARDSTGWTPLHLAAPWGHPEIVEVLLKNGADVNAADFQGWTPLHLAAAVGHLEIVEVLLKYGADVNAQDKFGKTAFDISIDNGNEDLAEILQKAAGGGSGGGSC
modifications: 90 kDa CMC via EMCH linker; aVEGF_Gly_Cys DARPin
Regarding B5, in series [3] (Tumor type 1 (SK-MEL-28 melanoma xenograft), 40 μL IT injection, exponential decay fit of ROI radiant efficiency over 168 hours), the “Intratumoral t1/2” value is 18.0 ± 3.4 h.

B6: Conjugate 101: Anti-VEGF DARPin (SEQ ID NO: 1) conjugated to 700 kDa CMC, MP2H linker, valency 13 (conjugate)
chain: SNAGSDLDKKLLEAARAGQDDEVRILMANGADVNARDSTGWTPLHLAAPWGHPEIVEVLLKNGADVNAADFQGWTPLHLAAAVGHLEIVEVLLKYGADVNAQDKFGKTAFDISIDNGNEDLAEILQKAAGGGSGGGSC
modifications: conjugated to 700 kDa CMC via MP2H linker; aVEGF_Gly_Cys DARPin
For B6, in series [4], the “IT half-life compared with unconjugated anti-VEGF DARPin and other conjugate (in words)” value was “longer than that of the unconjugated anti-VEGF DARPin or the peptide conjugated to a 830 kDa hyaluronic acid (HyA)”; the “Intratumoral t1/2” value was 101.2 ± 34.9 h.

B7: Conjugate 109: Anti-VEGF DARPin (SEQ ID NO: 1) conjugated to 830 kDa HyA, MP2H linker, valency 34 (conjugate)
chain: SNAGSDLDKKLLEAARAGQDDEVRILMANGADVNARDSTGWTPLHLAAPWGHPEIVEVLLKNGADVNAADFQGWTPLHLAAAVGHLEIVEVLLKYGADVNAQDKFGKTAFDISIDNGNEDLAEILQKAAGGGSGGGSC
modifications: conjugated to 830 kDa HyA via MP2H linker; aVEGF_Gly_Cys DARPin
As for B7, the “Intratumoral t1/2” value in series [4] came to 20.5 ± 7.0 h.
